The record followed here is patent US20140087436.

Common to all, as to assay: cell_activity
Series [1] addresses T1, CbbR G205D/R283H (Ralstonia eutropha) (UniProt P42722).
T1 sequence: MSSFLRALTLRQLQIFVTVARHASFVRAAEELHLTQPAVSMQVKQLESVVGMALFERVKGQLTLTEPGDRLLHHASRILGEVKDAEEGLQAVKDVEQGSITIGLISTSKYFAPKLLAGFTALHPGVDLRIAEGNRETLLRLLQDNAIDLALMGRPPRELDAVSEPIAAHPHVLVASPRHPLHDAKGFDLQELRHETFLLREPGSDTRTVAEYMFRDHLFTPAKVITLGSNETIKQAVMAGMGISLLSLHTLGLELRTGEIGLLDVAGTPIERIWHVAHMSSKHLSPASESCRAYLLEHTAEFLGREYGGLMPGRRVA
The following applies: beta-galactosidase, chemoheterotrophic; chemoautotrophic 4480.

Series [2] deals with T2, CbbR P269S/T299I (Ralstonia eutropha) (UniProt P42722).
T2 sequence: T1 sequence with D205G, P269S, H283R, T299I
The following applies: beta-galactosidase, chemoheterotrophic; chemoautotrophic 3879.

Series [3] addresses T3, CbbR T232A (Ralstonia eutropha) (UniProt P42722).
T3 sequence: T1 sequence with D205G, T232A, H283R
The following applies: beta-galactosidase, chemoheterotrophic; chemoautotrophic 5269.

Series [4] addresses T4, CbbR L79F (Ralstonia eutropha) (UniProt P42722).
T4 sequence: T1 sequence with L79F, D205G, H283R
The following applies: beta-galactosidase, chemoheterotrophic; chemoautotrophic 6840.

Series [5] addresses T5, CbbR G205D (Ralstonia eutropha) (UniProt P42722).
T5 sequence: T1 sequence with H283R
The following applies: beta-galactosidase, chemoheterotrophic; chemoautotrophic 2241.

Series [6] concerns the target T6, CbbR D148N (Ralstonia eutropha) (UniProt P42722).
T6 sequence: T1 sequence with D148N, D205G, H283R
The following applies: beta-galactosidase, chemoheterotrophic; chemoautotrophic 6442.

In series [7] the target is T7, CbbR A117V (Ralstonia eutropha) (UniProt P42722).
T7 sequence: T1 sequence with A117V, D205G, H283R
The following applies: beta-galactosidase, chemoheterotrophic; chemoautotrophic 6793.

Series [8] has as its target T8, CbbR A167V (Ralstonia eutropha) (UniProt P42722).
T8 sequence: T1 sequence with A167V, D205G, H283R
As to conditions: beta-galactosidase, chemoheterotrophic; chemoautotrophic 7373.

Where a chain is given by its changes, count along the chain named.

cbb promoter in lacZ reporter strain: the activity in series [1] was 2310 nmol/min/mg; in series [2], 617 nmol/min/mg; in series [3], 212 nmol/min/mg; in series [4] it was 218 nmol/min/mg; in series [5], 488 nmol/min/mg; in series [6], 343 nmol/min/mg. Moreover, the activity in series [7] was 254 nmol/min/mg; in series [8], 768 nmol/min/mg.
